# Bridges are numbered along the chain shown (N, C = ends). [ ]: non-standard residue; d: D form. The star is where a group is joined. Trp(7-Me) = Cc1cccc2c(C[C@H](N)C(=O)O)c[nH]c12; 2Nal = N[C@@H](Cc1ccc2ccccc2c1)C(=O)O; AEF = NCCOc1ccc(C[C@H](N)C(=O)O)cc1; αMeF = C[C@](N)(Cc1ccccc1)C(=O)O; Pen = CC(C)(S)[C@H](N)C(=O)O; Thp = NC1(C(=O)O)CCOCC1; Piv = CC(C)(C)C(=O)*; Tfa = O=C(C(F)(F)F)*
# T1: human IL-23R (interleukin-23 receptor) (human, UniProt Q5VWK5 24-629)
# T1 sequence (looked up): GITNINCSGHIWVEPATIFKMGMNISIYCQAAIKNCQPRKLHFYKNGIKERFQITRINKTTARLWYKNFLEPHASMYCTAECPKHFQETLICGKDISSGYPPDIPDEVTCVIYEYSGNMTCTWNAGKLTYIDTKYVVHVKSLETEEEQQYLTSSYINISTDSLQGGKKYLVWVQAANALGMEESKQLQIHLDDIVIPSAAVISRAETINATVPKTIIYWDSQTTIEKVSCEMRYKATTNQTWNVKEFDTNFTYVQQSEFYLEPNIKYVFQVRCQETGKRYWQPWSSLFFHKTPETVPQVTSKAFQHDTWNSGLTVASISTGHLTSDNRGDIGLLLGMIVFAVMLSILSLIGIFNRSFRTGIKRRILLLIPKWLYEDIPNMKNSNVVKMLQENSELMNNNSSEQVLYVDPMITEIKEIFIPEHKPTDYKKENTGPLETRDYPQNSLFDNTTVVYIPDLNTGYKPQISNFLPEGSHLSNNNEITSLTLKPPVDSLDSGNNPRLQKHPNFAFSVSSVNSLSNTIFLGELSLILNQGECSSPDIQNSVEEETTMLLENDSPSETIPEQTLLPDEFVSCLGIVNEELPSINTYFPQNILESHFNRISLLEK
# B1: Compound No. 140 (peptide)
# peptide: Ac-[Pen]NT[Trp(7-Me)]K(Ac)[Pen][AEF][2Nal][Thp]K(Tfa)N[Thp]-NH2
# modifications: disulfide 1-6
# SMILES: CC(=O)NCCCC[C@@H]1NC(=O)[C@H](Cc2c[nH]c3c(C)cccc23)NC(=O)[C@H]([C@@H](C)O)NC(=O)[C@H](CC(N)=O)NC(=O)[C@@H](NC(C)=O)C(C)(C)SSC(C)(C)[C@@H](C(=O)N[C@@H](Cc2ccc(OCCN)cc2)C(=O)N[C@@H](Cc2ccc3ccccc3c2)C(=O)NC2(C(=O)N[C@@H](CCCCNC(=O)C(F)(F)F)C(=O)N[C@@H](CC(N)=O)C(=O)NC3(C(N)=O)CCOCC3)CCOCC2)NC1=O
# B2: Compound No. 141 (peptide)
# peptide: Ac-[Pen]NT[Trp(7-Me)]K(Ac)[Pen][AEF][2Nal][Thp]K(Piv)N[Thp]-NH2
# modifications: disulfide 1-6
# SMILES: CC(=O)NCCCC[C@@H]1NC(=O)[C@H](Cc2c[nH]c3c(C)cccc23)NC(=O)[C@H]([C@@H](C)O)NC(=O)[C@H](CC(N)=O)NC(=O)[C@@H](NC(C)=O)C(C)(C)SSC(C)(C)[C@@H](C(=O)N[C@@H](Cc2ccc(OCCN)cc2)C(=O)N[C@@H](Cc2ccc3ccccc3c2)C(=O)NC2(C(=O)N[C@@H](CCCCNC(=O)C(C)(C)C)C(=O)N[C@@H](CC(N)=O)C(=O)NC3(C(N)=O)CCOCC3)CCOCC2)NC1=O
# B3: Compound No. 138 (peptide)
# peptide: Ac-[Pen]NT[Trp(7-Me)]K(Ac)[Pen][AEF][2Nal][Thp]K(Tfa)N[αMeF]-NH2
# modifications: disulfide 1-6
# SMILES: CC(=O)NCCCC[C@@H]1NC(=O)[C@H](Cc2c[nH]c3c(C)cccc23)NC(=O)[C@H]([C@@H](C)O)NC(=O)[C@H](CC(N)=O)NC(=O)[C@@H](NC(C)=O)C(C)(C)SSC(C)(C)[C@@H](C(=O)N[C@@H](Cc2ccc(OCCN)cc2)C(=O)N[C@@H](Cc2ccc3ccccc3c2)C(=O)NC2(C(=O)N[C@@H](CCCCNC(=O)C(F)(F)F)C(=O)N[C@@H](CC(N)=O)C(=O)N[C@@](C)(Cc3ccccc3)C(N)=O)CCOCC2)NC1=O
# B4: Compound No. 139 (peptide)
# peptide: Ac-[Pen]NT[Trp(7-Me)]K(Ac)[Pen][AEF][2Nal][Thp]K(Piv)N[αMeF]-NH2
# modifications: disulfide 1-6
# SMILES: CC(=O)NCCCC[C@@H]1NC(=O)[C@H](Cc2c[nH]c3c(C)cccc23)NC(=O)[C@H]([C@@H](C)O)NC(=O)[C@H](CC(N)=O)NC(=O)[C@@H](NC(C)=O)C(C)(C)SSC(C)(C)[C@@H](C(=O)N[C@@H](Cc2ccc(OCCN)cc2)C(=O)N[C@@H](Cc2ccc3ccccc3c2)C(=O)NC2(C(=O)N[C@@H](CCCCNC(=O)C(C)(C)C)C(=O)N[C@@H](CC(N)=O)C(=O)N[C@@](C)(Cc3ccccc3)C(N)=O)CCOCC2)NC1=O
# Target: T1, human IL-23R (interleukin-23 receptor)
# Assay: cell-based or functional assay
row,Binder,PBMC pSTAT3 IC50 (nM)
1,B1,2.6 nM
2,B2,3.7 nM
3,PentCO-[dR][Pen]NT[Trp(7-Me)]K(Ac)[Pen][AEF][2Nal][Thp]EN[αMeF]-NH2 (disulfide 2-7) [Compound No. 142],4.9 nM
4,B3,7.6 nM
5,FlagTag-[dR][Pen]NT[Trp(7-Me)]K(Ac)[Pen][AEF][2Nal][Thp]EN[Thp]-NH2 (disulfide 2-7; also: FlagTag sequence not given here) [Compound No. 146],8.9 nM
6,B4,6.6 nM
